Test in all cases: cell-based or functional assay
Assay [1] deals with human EGFR, full length (human) (UniProt P00533).
Assay [2] deals with human HER3 (ErbB-3) on BxPC-3 cells (human) (UniProt P21860).
Assay [3] addresses human EGFR, full length (human) (UniProt P00533). The source holds these as a separate data set.
The target of assay [4] is human HER3 (ErbB-3) on BxPC-3 cells (human) (UniProt P21860). This is another data set of the same source.

Read-outs that look alike come from different tables or passages of the source.

B1: MEHD7945A (antibody, INN chains, looked up, V domains shown)
VH: EVQLVESGGGLVQPGGSLRLSCAASGFTLSGDWIHWVRQAPGKGLEWVGEISAAGGYTDYADSVKGRFTISADTSKNTAYLQMNSLRAEDTAVYYCARESRVSFEAAMDYWGQGTLVTVSS
VL: DIQMTQSPSSLSASVGDRVTITCRASQNIATDVAWYQQKPGKAPKLLIYSASFLYSGVPSRFSGSGSGTDFTLTISSLQPEDFATYYCQQSEPEPYTFGQGTKVEIK
B1: the IC50 for BxPC-3 ligand-driven cell proliferation inhibition (pM) in assay [1] came to 260 pM; in assay [2], 260 pM; in assay [3], 287 pM; in assay [4], 287 pM.

The record behind these values is patent US10844127.
